We go through four molecules from article PMC3383001 (Cell, 2012).

For orientation: stoichiometry N means a count of units in the complex or per binding partner.

First the molecules themselves.
B1: KASH1 peptide (Nesprin-1, residues 8769–8797) co-expressed with SUN2(522–717) (peptide)
peptide: not shown
B2: KASH2 peptide (Nesprin-2, residues 6857–6885) co-expressed with SUN2(522–717) (peptide)
peptide: not shown
B3: SUN2(522–717), minimal SUN domain of human SUN2 used for crystallography (domain or fragment, UniProt Q9UH99 522-717, looked up)
chain: GVTEEQVHHIVKQALQRYSEDRIGLADYALESGGASVISTRCSETYETKTALLSLFGIPLWYHSQSPRVILQPDVHPGNCWAFQGPQGFAVVRLSARIRPTAVTLEHVPKALSPNSTISSAPKDFAIFGFDEDLQQEGTLLGKFTYDQDGEPIQTFHFQAPTMATYQVVELRILTNWGHPEYTCIYRFRVHGEPAH
B4: His-SUN2(335–717), luminal domain of human SUN2 (predicted coiled-coil regions and SUN domain) (domain or fragment, UniProt Q9UH99 335-717, looked up)
chain: LVSRREAALKEDFRRETAARIQEELSALRAEHQQDSEDLFKKIVRASQESEARIQQLKSEWQSMTQESFQESSVKELRRLEDQLAGLQQELAALALKQSSVAEEVGLLPQQIQAVRDDVESQFPAWISQFLARGGGGRVGLLQREEMQAQLRELESKILTHVAEMQGKSAREAAASLSLTLQKEGVIGVTEEQVHHIVKQALQRYSEDRIGLADYALESGGASVISTRCSETYETKTALLSLFGIPLWYHSQSPRVILQPDVHPGNCWAFQGPQGFAVVRLSARIRPTAVTLEHVPKALSPNSTISSAPKDFAIFGFDEDLQQEGTLLGKFTYDQDGEPIQTFHFQAPTMATYQVVELRILTNWGHPEYTCIYRFRVHGEPAH

For data set [1], the target named is B3. As to the kind of experiment: crystal structure.
Data set [2] addresses B3. Put plainly: crystal structure. The source holds these as a separate data set.
The data set “crystal structure” concerns the molecule itself. As to the kind of experiment: crystal structure.
The data set “AUC” concerns the molecule itself. Put plainly: AUC.

In the case of B1, in data set [1], the binding result is recorded as “binds”.

For B2, the “stoichiometry N” value in data set [2] is 3 KASH2 peptides per SUN2 trimer.

In the case of B3, in the data set “crystal structure”, the “stoichiometry N” value was found to be 3.

On to B4, for which the “stoichiometry N” value in the data set “AUC” is 3.
